Experimental data reported in the Human Domainome abundance scans (Beltran et al. 2025).

B1: POU domain, class 2, transcription factor 3, residues 186 to 260; numbered along this chain, Q9UKI9 (parent)
chain: SDLEELEKFAKTFKQRRIKLGFTQGDVGLAMGKLYGNDFSQTTISRFEALNLSFKNMCKLKPLLEKWLNDAESSP

Variants of: B1
Assay: abundance fitness (aPCA) (normalised: wild type 0, dead -1); higher = more abundant; growth selection in yeast, the domain comes from the species named
Details: Homo sapiens

Abundance fitness, by site and new letter:
K59: T -0.007, Q -0.03, W -0.129, V -0.086, S -0.033
K66: Q -0.036, I -0.142, R -0.024, A -0.055, G -0.038, D 0.018, S -0.147, F -0.248, C -0.063, H -0.104, W -0.161, E -0.061, N -0.019, T -0.007, M -0.157, V -0.066, Y -0.132, P -0.544
N69: A -0.029, F 0.061, E 0.002, D 0.026, I 0.018, G 0.042, H 0.083
P62: V -0.128, E -0.118, Y -0.624, N -0.24, T -0.163, R -0.149, K -0.036, C -0.201, I -0.082, H -0.025, G -0.085, F -0.191, Q -0.167, A -0.16, W -0.365
L63: Q -0.108, M -0.027, A 0.024, C -0.031, T -0.059, W -0.07, I 0.072, F -0.221, Y -0.173, S -0.055, R -0.022, N -0.026, E -0.127, H 0.011, P -0.092, V -0.032, G -0.06
L68: T -0.317, I 0.006, N -0.673, V -0.052, E -0.564, C -0.153, S -0.285, K -0.809, G -0.563, R -0.626, W -0.43, F -0.312, A -0.114, H -0.358, D -0.733, Q -0.311, M -0.109, P -0.749, Y -0.298
K61: M -0.133, R -0.02, Y -0.108, G -0.241, H -0.183, A -0.05, V -0.065, I -0.128, N -0.628, W -0.181, C -0.194, F -0.324, L -0.198, S -0.153, Q -0.017, E -0.273, D -0.898, P -0.829, T -0.254
W67: S -0.741, E -0.696, F -0.004, N -0.909, L -0.246, Y 0.005, D -0.706, C -0.282, R -0.731, G -0.804, I -0.419, Q -0.761, A -0.603, M -0.306, H -0.44, T -0.612
L64: F -0.135, R -0.83, N -0.776, S -0.743, T -0.462, G -0.784, Y -0.221, W -0.981, V -0.197, K -1.01, P -0.802, I -0.224, Q -0.836, C -0.148, E -0.888, D -0.557
L60: F -0.079, H -0.285, I -0.067, Q -0.242, T -0.039, G -0.79, P -0.855, E -0.847, K -0.106, W -0.074, D -0.601, A -0.081, M -0.062, N -0.395, V -0.02, Y -0.117, R -0.519
E65: Q -0.109, K 0.042, T -0.133, H -0.05, S -0.096, P -0.58, W -0.211, I 0.023, L -0.043, N -0.047, R -0.197, M 0.043, V -0.095, D -0.031, Y -0.215, F -0.118, C -0.033, A -0.07
